From PMC12337190, “A bacterial actin with high ATPase activity regulates the polymerization of a partner MreB isoform essential for Spiroplasma swimming motility” (The Journal of Biological Chemistry, 2025)
One block for each molecule: values may come before it.

How the values were obtained:
[1] = target: PrS-SpeMreB1 WT (monomeric gel-filtration fraction) (Spiroplasma eriocheiris); test: sedimentation assay (ultracentrifugation); buffer S with 2 mM AMPPNP; 3 h at room temperature; 100,000 rpm, 23 °C, 90 min; no linear fit possible (small pellet amounts)
[2] = target: PrS-SpeMreB1 WT (monomeric gel-filtration fraction) (Spiroplasma eriocheiris); test: sedimentation assay (ultracentrifugation); buffer S with 2 mM ADP; 3 h at room temperature; 100,000 rpm, 23 °C, 90 min; critical concentration as x-intercept of the linear fit
[3] = target: PrS-SpeMreB1 WT (monomeric gel-filtration fraction) (Spiroplasma eriocheiris); test: sedimentation assay (ultracentrifugation); buffer S (20 mM Tris-HCl pH 8.0, 1 M NaCl, 200 mM L-arginine-HCl, 5 mM DTT, 2 mM MgCl2) with 2 mM ATP; 3 h at room temperature; 100,000 rpm, 23 °C, 90 min; critical concentration as x-intercept of the linear fit
[4] = target: PrS-SpeMreB1 T164A (Spiroplasma eriocheiris); test: as above
[5] = target: T1, SpeMreB5 (Spiroplasma eriocheiris, UniProt A0A0H3XIQ3); test: liposome cosedimentation (loss of membrane binding with nucleotide); settings: 1 mM nucleotide, SpiroLipid liposomes, 200 mM KCl, 1 mM MgCl2, pH 7.5
T1 construct: gene mreB5; full-length SpeMreB5, 6xHis tag, pCold-15b, E. coli BL21(DE3), codon-optimized
T1 sequence (A0A0H3XIQ3 1-350): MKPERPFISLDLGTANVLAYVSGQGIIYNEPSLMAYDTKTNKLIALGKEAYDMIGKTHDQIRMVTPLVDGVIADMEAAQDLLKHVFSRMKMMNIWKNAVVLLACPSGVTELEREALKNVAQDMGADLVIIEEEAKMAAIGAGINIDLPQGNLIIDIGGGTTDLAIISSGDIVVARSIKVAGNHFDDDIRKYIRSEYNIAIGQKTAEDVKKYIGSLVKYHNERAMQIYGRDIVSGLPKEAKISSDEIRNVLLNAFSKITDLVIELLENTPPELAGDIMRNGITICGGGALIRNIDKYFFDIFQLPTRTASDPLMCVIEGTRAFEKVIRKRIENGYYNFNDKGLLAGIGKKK

[6] = target: T2, PrS-SpeMreB1 (Spiroplasma eriocheiris, UniProt A0A0H3XI00); test: sedimentation assay of polymerization; format: biochemical; settings: 2 mM ADP, 1 M NaCl, 2 mM MgCl2, pH 8.0, room temperature; polymerizes with nucleotide, not nucleotide-free
T2 construct: gene mreB1; full-length SpeMreB1; N-terminal 6xHis, two ProteinS (M. xanthus) solubilization tags, factor Xa site; C-terminal 6xHis; tags kept; 560 residues with tags; E. coli BL21(DE3), codon-optimized; monomeric gel filtration fraction
T2 sequence (A0A0H3XI00 1-346): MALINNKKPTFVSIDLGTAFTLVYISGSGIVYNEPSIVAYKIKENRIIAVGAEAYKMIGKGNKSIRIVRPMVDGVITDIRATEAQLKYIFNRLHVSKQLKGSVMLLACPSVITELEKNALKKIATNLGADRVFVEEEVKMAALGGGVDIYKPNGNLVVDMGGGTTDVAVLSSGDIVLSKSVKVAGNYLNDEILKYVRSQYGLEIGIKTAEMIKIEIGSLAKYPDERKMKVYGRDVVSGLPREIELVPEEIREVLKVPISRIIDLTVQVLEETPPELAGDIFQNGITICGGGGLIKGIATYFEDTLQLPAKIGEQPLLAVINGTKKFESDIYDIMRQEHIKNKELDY

critical concentration (CC) for polymerization [1]: > 7 µM
critical concentration (CC) for polymerization [2]: 3.8 µM
critical concentration (CC) for polymerization [3]: 0.41 µM
Molecule: PrS-SpeMreB1 WT (monomeric gel-filtration fraction) (natural protein)

Molecule: PrS-SpeMreB1 T164A (natural protein)
critical concentration (CC) for polymerization [4]: 3 µM

Molecule: Nc1ncnc2c1ncn2[C@@H]1O[C@H](COP(=O)(O)OP(=O)(O)OP(=O)(O)O)[C@@H](O)[C@H]1O [ATP]
liposome cosedimentation (loss of membrane binding with nucleotide) [5]: SpeMreB5 did not bind to the liposomes in the presence of nucleotides

Molecule: Nc1ncnc2c1ncn2[C@@H]1O[C@H](COP(=O)(O)OP(=O)(O)NP(=O)(O)O)[C@@H](O)[C@H]1O [AMPPNP]
liposome cosedimentation (loss of membrane binding with nucleotide) [5]: SpeMreB5 did not bind to the liposomes in the presence of nucleotides

Molecule: Nc1ncnc2c1ncn2[C@@H]1O[C@H](COP(=O)(O)OP(=O)(O)O)[C@@H](O)[C@H]1O [ADP]
sedimentation assay of polymerization [6]: PrS-SpeMreB1 was less polymerized in the presence of ADP
liposome cosedimentation (loss of membrane binding with nucleotide) [5]: SpeMreB5 did not bind to the liposomes in the presence of nucleotides
